For series [1], the system named is ThHSF1 DBD (Trametes hirsuta AH28-2). Nature of the series: FP. The following applies: 5x binding buffer pH 6.8 (25 mM HEPES, 5 mM MgCl2, 150 mM KCl, 1 mM DTT, 5% glycerol), EMSA 100 nM probe, 16 C 30 min, then 37 C 30 min, 6% native PAGE. Background: A gel shift assay detects complexes by their altered migration in electrophoresis.
In series [2] the test system is ThHSF1 full-length (Trametes hirsuta AH28-2). Nature of the series: FP. The settings on record: without ThHspA1, 5x binding buffer pH 6.8 (25 mM HEPES, 5 mM MgCl2, 150 mM KCl, 1 mM DTT, 5% glycerol), EMSA 100 nM probe, 16 C 30 min, then 37 C 30 min, 6% native PAGE.
Series [3] deals with ThHSF1 full-length;ThHspA1 full-length (Trametes hirsuta AH28-2;Trametes hirsuta AH28-2) (UniProt A0AAD7TN48). Nature of the series: FP. The settings on record: ThHspA1 added, 5x binding buffer pH 6.8 (25 mM HEPES, 5 mM MgCl2, 150 mM KCl, 1 mM DTT, 5% glycerol), EMSA 100 nM probe, 16 C 30 min, then 37 C 30 min, 6% native PAGE.
Series [4] addresses ThHSF1, heat shock transcription factor of Trametes hirsuta AH28-2 (full-length protein) (Trametes hirsuta AH28-2). Nature of the series: ITC. The following applies: natural protein.
For series [5] the target is unchanged. Nature of the series: ITC; iTC200, 25°C; 50 mM Tris, 500 mM NaCl, pH 7.5; 5 µM ThHspA1 titrated against 1 µM ThHSF1. (In general: In ITC the heat of successive injections is recorded.)
Series [6] addresses ThHspA1, Hsp70 homolog of Trametes hirsuta AH28-2 (full-length protein) (Trametes hirsuta AH28-2). Nature of the series: dynamic light scattering; purified full-length ThHSF1 alone, ThHspA1 alone and the two together (Fig. S10); conditions not given.

In series [1], “AGTTCAGTATGTCTTGAAGATTATGCGGTCAGAAAC (double strand) [lacB promoter probe]” yielded a dissociation constant (Kd) of 5.46 µM. This lies in the single-digit micromolar range.

Consider “TACGCCAAGAACTGACTTACATGCAA (double strand) [lacA mutant probe 5]”, for which the Kd in series [1] stood at 11.7 µM.

The substance “TACGCCTAGAACTGACTTACATGCAA (double strand) [lacA mutant probe 4]” yielded a Kd in series [1] of 5.2 µM.

In series [1], “TACGCCTTAAACTGACTTACATGCAA (double strand) [lacA mutant probe 1]” registered an equilibrium dissociation constant (Kd) of 4.59 µM.

The substance “TACGCCTTATACTGACTTACATGCAA (double strand) [lacA mutant probe 2]” displayed a Kd in series [1] of 14.7 µM.

Turning to “TACGCCTTGAACTGACTTACATGCAA (double strand) [lacA promoter probe WT (26 bp)]”, the dissociation constant Kd in series [1] stood at 0.961 µM; in series [2] it was 1.03 µM; in series [3] it was 0.673 µM.

Regarding “TTCGAACGCACCGAAACCATCCCGAACTTGGTCGAA (double strand) [lacF promoter probe]”, in series [1], the dissociation constant (Kd) was determined as 4.83 µM.

In series [4], “ThHspA1, Hsp70 homolog of Trametes hirsuta AH28-2 (full-length protein)” showed a Ka of 1.16e+07 M⁻¹.

With “ThHspA1, Hsp70 homolog of Trametes hirsuta AH28-2 (full-length protein) (natural protein)”, in series [5], the Kd stood at 0.105 µM. The same substance gave a stoichiometry N in series [6] of 6.

The term Kd denotes the concentration at which binding is half-saturated. What is called stoichiometry N is a count of units in the complex or per binding partner.

(Values after paper PMC12772356.)
